# Data from US20250313633A1 (WUXI BIOLOGICS IRELAND, published 2025).
# How the values were obtained:
# [1] = biological target: T1, human full-length B7H3 on MCF-7 cells (human, UniProt Q5ZPR3 29-534); experiment: FACS on MCF-7 cells
# T1 chain: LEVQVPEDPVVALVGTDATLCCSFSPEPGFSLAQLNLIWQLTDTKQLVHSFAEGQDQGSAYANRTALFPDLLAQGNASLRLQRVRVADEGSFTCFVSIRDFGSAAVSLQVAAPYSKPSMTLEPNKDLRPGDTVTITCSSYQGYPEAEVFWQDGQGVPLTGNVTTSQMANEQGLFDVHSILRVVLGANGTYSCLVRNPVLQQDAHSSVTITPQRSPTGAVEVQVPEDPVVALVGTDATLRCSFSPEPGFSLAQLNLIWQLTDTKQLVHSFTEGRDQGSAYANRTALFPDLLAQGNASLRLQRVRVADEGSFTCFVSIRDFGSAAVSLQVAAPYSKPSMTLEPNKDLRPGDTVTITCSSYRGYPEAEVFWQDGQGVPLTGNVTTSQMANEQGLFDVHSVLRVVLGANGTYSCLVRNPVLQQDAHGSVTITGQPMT
# [2] = biological target: T1, human full-length B7H3 on MCF-7 cells; experiment: cell-based or functional assay
# [3] = biological target: T1, human full-length B7H3 on MCF-7 cells; experiment: cell-based or functional assay
binder,measurement,setting,value
"Enoblituzumab (MacroGenics) (antibody, V domains shown) VH: EVQLVESGGGLVQPGGSLRLSCAASGFTFSSFGMHWVRQAPGKGLEWVAYISSDSSAIYYADTVKGRFTISRDNAKNSLYLQMNSLRDEDTAVYYCGRGRENIYYGSRLDYWGQGTTVTVSS VL: DIQLTQSPSFLSASVGDRVTITCKASQNVDTNVAWYQQKPGKAPKALIYSASYRYSGVPSRFSGSGSGTDFTLTISSLQPEDFATYYCQQYNNYPFTFGQGTKLEIKR",Max MFI,[1],4640 MFI
same,"Internalization on MCF-7, EC50",[2],1.95 nM
same,"Internalization on MCF-7, Max MFI",[2],39800 MFI
"W301088-1.145.16-z3-p1-uIgG1KV320 (antibody, V domains shown, human IgG1 LALA, kappa; also called the final lead antibody; final lead) VH: QVQLQESGPGLVKPSQTLSLTCTVTDYSITGDYAWNWIRQHPGKGLEWIGYISYSGSTSYNPSLQSRVTISRDTSKNQFSLKLSSVTAADTAVYFCARSLGRRWYFVVWGQGTTVTVSS VL: not shown",Max MFI,[1],19900 MFI
same,"Internalization on MCF-7, EC50",[2],0.44 nM
same,"Internalization on MCF-7, Max MFI",[2],52300 MFI
same,"internalization, EC50",[3],0.51 nM
"W301088-1.145.16-xIgG1KV320 (antibody, V domains shown, also called the chimeric antibody; chimeric antibody) VH: DVQLQESGPGLVKPSQSLSLTCTVTDYSITGDYAWNWIRQFPGNKLEWMGYISYSGSTSYNPSLQSRISITRDTSKNQFFLQLNSVTSEDTATYFCARSLGRRWYFVVWGAGTTVTVSA VL: not shown",Max MFI,[1],19800 MFI
same,"Internalization on MCF-7, EC50",[2],0.51 nM
same,"Internalization on MCF-7, Max MFI",[2],57200 MFI
